# Experimental data: paper PMC12088422 (Proceedings of the National Academy of Sciences of the …, 2025)
# Biological target: the molecule itself
# Assay: SEC-MALS
protein,measurement,value
"Pseudomonas aeruginosa PAO1 glutamyl-tRNA synthetase (enzyme, UniProt Q9XCL6 1-494, looked up) MTTVRTRIAPSPTGDPHVGTAYIALFNLCFARQHGGQFILRIEDTDQLRSTRESEQQIYDALRWLGIEWDEGPDVGGPHGPYRQSERGHIYKKYSDELVEKGHAFTCFCTPERLDAVRAEQMARKETPRYDGHCMHLPKDEVQRRLAAGESHVTRMKVPTEGVCVVPDMLRGDVEIPWDRMDMQVLMKADGLPTYFLANVVDDHLMGITHVLRGEEWLPSAPKLIKLYEYFGWEQPQLCYMPLLRNPDKSKLSKRKNPTSITFYERMGYLPQALLNYLGRMGWSMPDEREKFTLAEMIEHFDLSRVSLGGPIFDLEKLSWLNGQWIREQSVEEFAREVQKWALNPEYLMKIAPHVQGRVENFSQIAPLAGFFFSGGVPLDASLFEHKKLDPTQVRQVLQLVLWKLESLRQWEKERITGCIQAVAEHLQLKLRDVMPLMFPAITGHASSVSVLDAMEILGADLSRYRLRQALELLGGASKKETKEWEKIRDAIPG",stoichiometry N,2
